Drawing on US20150344570A1 (published 2015), this text covers He/Con_2b and He/Con_1a for 24 molecules.

The target in one experiment is T1, FcγRIIb (human, UniProt P31994 43-217).
T1 construct: extracellular domain; also called FcgRIIb; 2b
T1 sequence (looked up): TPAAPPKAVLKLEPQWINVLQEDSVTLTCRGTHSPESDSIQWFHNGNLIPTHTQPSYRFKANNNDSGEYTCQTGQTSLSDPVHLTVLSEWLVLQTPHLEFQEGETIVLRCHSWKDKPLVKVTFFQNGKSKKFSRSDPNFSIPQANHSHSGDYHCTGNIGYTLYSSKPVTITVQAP
In words: SPR (Biacore), relative binding.

For a further experiment, the target named is T2, FcγRIa (human, UniProt P12314 16-292).
T2 construct: extracellular domain; Soluble extracellular domain expressed in FreeStyle293 cells, used as analyte in Biacore; also called FcgRI; 1a; not shown: His tag attached to the C terminus
In words: SPR (Biacore); He Ab vs HeCon Ab GpH7-A5/GpH7-B3/GpL16-k0. As to the method:
Analysis of interaction between objective antibody and the FcγR was carried out using Biacore T100 (GE Healthcare). HBS-EP+ (GE Healthcare) was used as the running buffer, and the measurement temperature was set to 25° C. Chips produced by immobilizing the antigen peptide by the amine coupling method to a Series S Sencor Chip CM5 (GE Healthcare), or alternatively, chips produced by allowing preliminarily biotinylated antigen peptides to interact with and immobilize onto a Series S Sensor Chip SA (certified) (GE Healthcare) were used. Antibodies of interest were captured onto an antigen peptide-immobilized chip, and allowed to interact to each FcγR diluted with running buffer. To regenerate and repeatedly use the chip, the antibodies captured on the chip were washed off by reacting 10 mM glycine-HCl, pH 1.5.

T2 sequence (P12314 16-292): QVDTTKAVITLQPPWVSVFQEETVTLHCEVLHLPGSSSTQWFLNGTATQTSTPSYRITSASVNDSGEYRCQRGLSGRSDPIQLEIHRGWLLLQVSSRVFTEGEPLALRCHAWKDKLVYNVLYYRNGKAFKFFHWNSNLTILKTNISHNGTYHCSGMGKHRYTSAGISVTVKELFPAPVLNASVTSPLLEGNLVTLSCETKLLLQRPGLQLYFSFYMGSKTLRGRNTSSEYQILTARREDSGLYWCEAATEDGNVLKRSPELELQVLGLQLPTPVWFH

B1: GpH7-A5/GpH7-B3 variant D265_02A/GpL16-k0 (antibody, human IgG1, kappa)
heavy 1: not shown
heavy 2: not shown
light: DIVMTQSPLSLPVTPGEPASISCQASESLVHSNRNTYLHWYLQKPGQSPQLLIYKVSNRFSGVPDRFSGSGSGTDFTLKISRVEAEDVGVYYCSQNTHVPPTFGQGTKVEIERTVAAPSVFIFPPSDEQLKSGTASVVCLLNNFYPREAKVQWKVDNALQSGNSQESVTEQDSKDSTYSLSSTLTLSKADYEKHKVYACEVTHQGLSSPVTKSFNRGEC
notes: mutation in the GpH7-B3 chain only; also called He Ab
Consider B1, for which the He/Con_2b in the experiment with FcγRIIb is 19.9 % of GpH7-A5/GpH7-B3/GpL16-k0.

B2: GpH7-A5/GpH7-B3 variant S298_16H/GpL16-k0 (antibody, human IgG1, kappa)
heavy 1: not shown
heavy 2: not shown
light: B1 light
notes: also called He Ab S298_16H
With B2, the He/Con_1a with FcγRIa is 109 relative binding, control = 100.

B3: GpH7-A5/GpH7-B3 variant S324_19Q/GpL16-k0 (antibody, human IgG1, kappa)
heavy 1: not shown
heavy 2: not shown
light: B1 light
notes: also called He Ab S324_19Q
As to B3, the He/Con_1a in the experiment with FcγRIa is 112 relative binding, control = 100.

B4: GpH7-A5/GpH7-B3 variant T335_11K/GpL16-k0 (antibody, human IgG1, kappa)
heavy 1: not shown
heavy 2: not shown
light: B1 light
notes: also called He Ab T335_11K
For the molecule B4, in the experiment with FcγRIa, the He/Con_1a was 111 relative binding, control = 100.

B5: GpH7-A5/GpH7-B3 variant S337_15Y/GpL16-k0 (antibody, human IgG1, kappa)
heavy 1: not shown
heavy 2: not shown
light: B1 light
notes: also called He Ab S337_15Y
With B5, the He/Con_1a in the experiment with FcγRIa is 104 relative binding, control = 100.

B6: GpH7-A5/GpH7-B3 variant V266_19Q/GpL16-k0 (antibody, human IgG1, kappa)
heavy 1: not shown
heavy 2: not shown
light: B1 light
notes: also called He Ab V266_19Q
On to B6, for which, in the experiment with FcγRIa, the He/Con_1a is 100 relative binding, control = 100.

B7: GpH7-A5/GpH7-B3 variant S337_02A/GpL16-k0 (antibody, human IgG1, kappa)
heavy 1: not shown
heavy 2: not shown
light: B1 light
notes: also called He Ab S337_02A
Regarding B7, the He/Con_1a in the experiment with FcγRIa was 106 relative binding, control = 100.

B8: GpH7-A5/GpH7-B3 variant T335_09D/GpL16-k0 (antibody, human IgG1, kappa)
heavy 1: not shown
heavy 2: not shown
light: B1 light
notes: also called He Ab T335_09D
For the molecule B8, the He/Con_1a with FcγRIa was 108 relative binding, control = 100.

B9: GpH7-A5/GpH7-B3 variant S298_20W/GpL16-k0 (antibody, human IgG1, kappa)
heavy 1: not shown
heavy 2: not shown
light: B1 light
notes: also called He Ab S298_20W
As for B9, in the experiment with FcγRIa, the He/Con_1a is 104 relative binding, control = 100.

B10: GpH7-A5/GpH7-B3 variant S337_09D/GpL16-k0 (antibody, human IgG1, kappa)
heavy 1: not shown
heavy 2: not shown
light: B1 light
notes: also called He Ab S337_09D
On to B10, for which the He/Con_1a with FcγRIa was 106 relative binding, control = 100.

B11: GpH7-A5/GpH7-B3 variant S337_06M/GpL16-k0 (antibody, human IgG1, kappa)
heavy 1: not shown
heavy 2: not shown
light: B1 light
notes: also called He Ab S337_06M
In the case of B11, the He/Con_1a with FcγRIa was 107 relative binding, control = 100.

B12: GpH7-A5/GpH7-B3 variant D265_19Q/GpL16-k0 (antibody, human IgG1, kappa)
heavy 1: not shown
heavy 2: not shown
light: B1 light
notes: as for B1
Take B12: the He/Con_2b in the experiment with FcγRIIb was 33.4 % of GpH7-A5/GpH7-B3/GpL16-k0.

B13: GpH7-A5/GpH7-B3 variant S337_19Q/GpL16-k0 (antibody, human IgG1, kappa)
heavy 1: not shown
heavy 2: not shown
light: B1 light
notes: also called He Ab S337_19Q
Turning to B13, the He/Con_1a in the experiment with FcγRIa is 105 relative binding, control = 100.

B14: GpH7-A5/GpH7-B3 variant T335_07I/GpL16-k0 (antibody, human IgG1, kappa)
heavy 1: not shown
heavy 2: not shown
light: B1 light
notes: also called He Ab T335_07I
For the molecule B14, the He/Con_1a in the experiment with FcγRIa is 109 relative binding, control = 100.

B15: GpH7-A5/GpH7-B3 variant S337_04F/GpL16-k0 (antibody, human IgG1, kappa)
heavy 1: not shown
heavy 2: not shown
light: B1 light
notes: also called He Ab S337_04F
Consider B15, for which the He/Con_1a with FcγRIa was 106 relative binding, control = 100.

B16: GpH7-A5/GpH7-B3 variant S337_03V/GpL16-k0 (antibody, human IgG1, kappa)
heavy 1: not shown
heavy 2: not shown
light: B1 light
notes: also called He Ab S337_03V
With B16, the He/Con_1a with FcγRIa is 107 relative binding, control = 100.

B17: GpH7-A5/GpH7-B3 variant T335_15Y/GpL16-k0 (antibody, human IgG1, kappa)
heavy 1: not shown
heavy 2: not shown
light: B1 light
notes: also called He Ab T335_15Y
For B17, the He/Con_1a with FcγRIa is 107 relative binding, control = 100.

B18: GpH7-A5/GpH7-B3 variant S337_12R/GpL16-k0 (antibody, human IgG1, kappa)
heavy 1: not shown
heavy 2: not shown
light: B1 light
notes: also called He Ab S337_12R
Regarding B18, the He/Con_1a with FcγRIa is 106 relative binding, control = 100.

B19: GpH7-A5/GpH7-B3 variant S337_20W/GpL16-k0 (antibody, human IgG1, kappa)
heavy 1: not shown
heavy 2: not shown
light: B1 light
notes: also called He Ab S337_20W
With B19, the He/Con_1a with FcγRIa was 105 relative binding, control = 100.

B20: GpH7-A5/GpH7-B3 variant S337_10E/GpL16-k0 (antibody, human IgG1, kappa)
heavy 1: not shown
heavy 2: not shown
light: B1 light
notes: also called He Ab S337_10E
For B20, the He/Con_1a in the experiment with FcγRIa was 106 relative binding, control = 100.

B21: GpH7-A5/GpH7-B3 variant T335_05P/GpL16-k0 (antibody, human IgG1, kappa)
heavy 1: not shown
heavy 2: not shown
light: B1 light
notes: also called He Ab T335_05P
B21: the He/Con_1a with FcγRIa is 106 relative binding, control = 100.

B22: GpH7-A5/GpH7-B3 variant S324_18N/GpL16-k0 (antibody, human IgG1, kappa)
heavy 1: not shown
heavy 2: not shown
light: B1 light
notes: also called He Ab S324_18N
As for B22, the He/Con_1a in the experiment with FcγRIa is 116 relative binding, control = 100.

B23: GpH7-A5/GpH7-B3 variant S324_15Y/GpL16-k0 (antibody, human IgG1, kappa)
heavy 1: not shown
heavy 2: not shown
light: B1 light
notes: also called He Ab S324_15Y
As to B23, the He/Con_1a with FcγRIa was 114 relative binding, control = 100.

B24: GpH7-A5/GpH7-B3 variant T335_12R/GpL16-k0 (antibody, human IgG1, kappa)
heavy 1: not shown
heavy 2: not shown
light: B1 light
notes: also called He Ab T335_12R
For the molecule B24, the He/Con_1a in the experiment with FcγRIa was 113 relative binding, control = 100.
